Laboratory results from patent US20250353920A1 (SUBDOMAIN, published 2025).

T1: CD123 (Homo sapiens (Human), UniProt P26951 19-305, limits assumed)
T1 sequence: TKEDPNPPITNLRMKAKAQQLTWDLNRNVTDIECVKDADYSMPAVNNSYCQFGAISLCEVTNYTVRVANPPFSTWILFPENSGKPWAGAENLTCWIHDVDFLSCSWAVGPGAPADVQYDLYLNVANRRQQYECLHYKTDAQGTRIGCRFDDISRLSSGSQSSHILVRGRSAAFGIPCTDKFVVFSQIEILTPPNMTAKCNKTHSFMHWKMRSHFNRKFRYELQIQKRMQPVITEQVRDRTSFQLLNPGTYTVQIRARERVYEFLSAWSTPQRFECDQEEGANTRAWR


Columns and labels:
CD123 = target: T1, CD123; assay: library selection; assay not told
control (IgG Fc) [1] = assay: phage ELISA, control wells, upper end of the distribution
control (IgG Fc) [2] = assay: phage ELISA, control wells, lower end of the distribution
control (IgG Fc) [3] = assay: phage ELISA, 89 identical clones, control wells

Row | binding result (CD123) | ELISA absorbance (control (IgG Fc) [1]) [OD] | ELISA absorbance (control (IgG Fc) [2]) [OD] | ELISA absorbance (control (IgG Fc) [3]) [OD] | Binder
1 | binds | – | – | – | SEQ ID NO 101 (designed binder, DBDpp, library F3) MGSWTEFDRRLDAIWDRLFALGGSEAELAAFEKEIAAFESELQAYKGKGNPEVEWLREEAADIRDYLQAYRHN
2 | binds | – | – | – | SEQ ID NO 102 (designed binder, DBDpp, library F3) MGSWTEFDRRLDAIWDRLFALGGSEAELAAFEKEIAAFESELQAYKGKGNPEVEWLREEAADIRDYLQAYRHN
3 | binds | – | – | – | SEQ ID NO 114 (designed binder, DBDpp, library F3) MGSWTEFDRRLDAIWDRLFALGGSEAELAAFEKEIAAFESELQAYKGKGNPEVEWLREEAADIRDYLQAYRHN
4 | – | 0.125 | 0.056 | 0.067 | bb10 (designed binder) MGSWAEFKQRLAAIKTRLEALGGSEAELAAFLGEIWAFEMELAAYKGKGNPEVEALGREAAAIRMELQAYRHN
